Experimental data taken from patent US20210139608.

System: T1, MMP2-cleavable peptide linker CGPLGVRGG within the MAP-Ab conjugate (imuGlue)
T1 sequence: CGPLGVRGG

MMP2 (matrix metalloproteinase-2) was tested, and the “cumulative Ab release profile from MAP-Ab in the presence of MMP2” value was “the imuGlue may release 75% of Ab sprayed for 24 hours in the presence of MMP2” and the “emission spectrum of MAP-Ab with or without MMP2” value was “when MMP2 treatment was carried out, a blue shift was observed in the MAP-Ab emission spectrum”.
